In patent publication US20020076693A1 (published 2002):

Molecular target: T1, recombinant soluble CD4 (UniProt P01730 26-396)
T1 construct: domain: soluble form of recombinant CD4
Assay: BIAcore, soluble CD4; row shifted one column to the left

B1: recombinant gp120 of HIV-1 SF2 (ligand)
chain: not shown
notes: domain: gp120; also called gp120 HIV-1 SF2; gp120-SF2
For B1, which Ka is on record?
Its Ka is 2.1e+08 M⁻¹.

What about the koff of the same binder?
The koff was 0.0056 s⁻¹.

And the kon?
The kon was 1.15e+06 M⁻¹ s⁻¹.
